Assay results from publication PMC5821850, “Basal condensation of Numb and Pon complex via phase transition during Drosophila neuroblast asymmetric division” (Nature Communications, 2018).
Substitutions are numbered along the chain they refer to. Numbers in names are those of the source. Blank lines part the entries; values can stand above or below the molecule they belong to. Square brackets hold non-standard residues; d marks the D form. Ends that are not written are not given here. pT = C[C@@H](OP(=O)(O)O)[C@H](N)C(=O)O

What was measured:
[1] = target: Drosophila Numb PTB domain (aa 65-203) (Drosophila) (UniProt P16554); assay: ITC; Pon fragments (~0.5 mM) injected into PTB proteins (~0.05 mM); 20 °C; 50 mM Tris pH 8.0, 100 mM NaCl, 1 mM EDTA, 1 mM β-ME; one-site binding model
Numb PTB R171A [2] = target: T1, Numb PTB R171A (Drosophila, UniProt P16554-1 65-203, R171A); assay: as above
T1 sequence: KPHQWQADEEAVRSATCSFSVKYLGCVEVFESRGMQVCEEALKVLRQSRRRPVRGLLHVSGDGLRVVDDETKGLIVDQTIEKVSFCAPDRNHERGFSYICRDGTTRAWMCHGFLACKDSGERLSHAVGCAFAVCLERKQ

[3] = target: Drosophila Numb PTB domain (aa 65–203), P16554-1; assay: ITC; conditions: parent: 1.80 ± 0.17
[4] = target: Drosophila Numb PTB domain (aa 65-203) (Drosophila) (UniProt P16554)
[5] = target: Drosophila Numb PTB domain (aa 65-203) (Drosophila) (UniProt P16554); remark: listed apart in the source
[6] = target: T2, Drosophila Numb PTB domain (aa 65–203) (Drosophila, UniProt P16554-1 65-203); assay: ITC
T2 chain: T1 sequence with A107R

[7] = target: T2, Drosophila Numb PTB domain (aa 65–203); assay: ITC
Numb PTB R171A [8] = target: T1, Numb PTB R171A; assay: ITC
[9] = target: T3, Drosophila Numb PTB domain (aa 65–203) (Drosophila, UniProt P16554-1 65-203); assay: AUC; sedimentation velocity, 42,000 rpm, 4 °C, interference detection, SEDFIT; Numb PTB with three molar ratios of Nak AB, or with Pon A2B2; conditions: both partners purified
T3 construct: Numb PTB domain, Drosophila, Uniprot P16554-1, aa 65-203; source: E. coli BL21 (DE3), purified (Ni2+-NTA, SEC); not shown: His tag, N-terminal, cleaved
T3 sequence (looked up): T1 sequence with A107R

[10] = target: T4, Drosophila Numb PTB domain (aa 65-203) (Drosophila, UniProt P16554-1 65-203); assay: ITC; Pon fragments (~0.5 mM) injected into PTB proteins (~0.05 mM); 20 °C; 50 mM Tris pH 8.0, 100 mM NaCl, 1 mM EDTA, 1 mM β-ME; one-site binding model; conditions: both partners purified
T4 construct: Numb, Drosophila, PTB domain, residues 65-203; theoretical mass 15.7 kDa in the ultracentrifugation; also called dNumb PTB; Numb 65-203; source: E. coli BL21 (DE3), purified (Ni2+-NTA, SEC); not shown: His tag, N-terminal, cleaved
T4 sequence (looked up): T1 sequence with A107R

[11] = target: T3, Drosophila Numb PTB domain (aa 65–203); assay: ITC; ITC200, 20 °C, buffer A (50 mM Tris pH 8.0, 1 mM EDTA, 1 mM β-ME, 100 mM NaCl); Pon fragments (~0.5 mM) injected into PTB proteins (~0.05 mM); one-site binding model; conditions: both partners purified

Kd [1]: 1 µM | Kd (Numb PTB R171A [2]): > 100 µM
Molecule: Pon 130-162 (A2B2) (domain or fragment)

Kd [3]: 49.3 µM
Molecule: Pon A2B2 fragment N152A; P153A

Kd [1]: 48.3 µM
Molecule: Pon A2B2 N152P153A (domain or fragment)

Kd [1]: 12.2 µM
Molecule: Pon 157-200 (A3B3) (domain or fragment)

Kd [1]: 8.77 µM | Kd (Numb PTB R171A [2]): > 100 µM
Molecule: Pon 110-148 (B1A2) (domain or fragment)

in vitro phase transition, sedimentation assay: share of Numb PTB and Pon A1B3 recovered from the condensed liquid phase, 1:1 mixture, 25 to 100 μM [4]: 80% | in vitro phase transition, sedimentation assay: share of the proteins in the condensed liquid phase against the molar ratio, highest at 1:3 Pon A1B3 to Numb PTB [5]: > 90%
Molecule: Pon N-terminal fragment (aa 1–228), A1B1A2B2A3B3 (domain or fragment)

Kd [6]: 12.2 µM
B1: Pon A3B3 fragment (peptide)
chain: VRSATTPAKGFVNPALNLRGSDAPASLNPFEIHRPSEASEAACN

Kd [6]: > 70 µM
B2: Pon A1 (peptide)
chain: AAVASTESCFTNAAFSST

Kd [7]: > 100 µM
B3: Pon single-AB fragment with E121A in the B1 motif (peptide)
chain: QQKLPTNPFAVLRQPPKKKKREHACFENPGLNLE

Kd (Numb PTB R171A [8]): > 100 µM | Kd [6]: 8.77 µM
B4: Pon B1A2 fragment (peptide)
chain: B3 chain with A10E

stoichiometry N [9]: 1
B5: Nak AB fragment (Numb-associated kinase, C-terminal A and B motifs) (peptide)
chain: QNSAKTGFSNMSFEDFPSDQEMDRLSRTIPFEVVRNEKML

Kd [10]: > 100 µM
B6: Pon B1A2 E121A (domain or fragment)
chain: QQQQKLPTNPFAVLRQPPKKKKREHACFENPGLNLELPE

Kd [10]: 18.1 ± 2.2 µM
B7: Pon 1-130/41-130 (A1B1) (domain or fragment)
chain: MLETKSIAALAFTETPRKRKRETLYKNAAPPPNPQQQPPEKDAQDAAVASTESCFTNAAFSSTPKKLMVARRRLAKENSQPNPFPGLEVKSIADLAQKQQHQQHHQQQQQQQQKLPTNPFEVLRQPPKKK

Kd [10]: > 100 µM
B8: Pon 124-148/130-148 (A2) (domain or fragment)
chain: KKREHACFENPGLNLELPE

Kd [7]: 49.3 µM
B9: Pon single-AB fragment with N152,P153A in the B2 motif (peptide)
chain: KKKKREHACFENPGLNLELPEKQFAAYEVVRSA

Kd (Numb PTB R171A [8]): > 100 µM | Kd [6]: 1.8 µM
B10: Pon A2B2 fragment (peptide)
chain: B9 chain with A25N, A26P

Kd [7]: > 100 µM
B11: Pon single-AB fragment with Y154E in the B2 motif (peptide)
chain: B9 chain with A25N, A26P, Y27E

Kd [7]: 5.46 µM
B12: Pon A2B2 K149A (peptide)
chain: B9 chain with K22A, A25N, A26P

Kd [7]: > 100 µM
B13: Pon single-AB fragment with R158A in the B2 motif (peptide)
chain: B9 chain with A25N, A26P, R31A

Kd [10]: ~70 µM
B14: Pon 1-116 (A1) (domain or fragment)
chain: MLETKSIAALAFTETPRKRKRETLYKNAAPPPNPQQQPPEKDAQDAAVASTESCFTNAAFSSTPKKLMVARRRLAKENSQPNPFPGLEVKSIADLAQKQQHQQHHQQQQQQQQKLP

Kd [10]: 11.3 ± 0.37 µM
B15: pPon peptide (peptide)
peptide: ESCFTNAAFSS[pT]PKK
notes: Pon, Drosophila; the peptide holds the A1 motif FTNAAF; the range is counted from N57 of the A1 motif; source: synthetic peptide

Kd [11]: ~11 µM
B16: pPon peptide (peptide)
peptide: ESCFTNAAFSS[pT]PKK
notes: Pon, Drosophila; stretch with the A1 motif FTNAAF (N57) followed by the phosphorylated threonine; limits worked out by setting the Asn of FTNAAF to N57 of the A1 motif; source: synthetic peptide (commercially synthesized)

Kd [10]: 0.48 ± 0.02 µM
B17: Pon A2B2 K148A (domain or fragment)
chain: KKREHACFENPGLNLELPEAQFNPYEVVRSATT

Kd [10]: > 100 µM
B18: Pon A2B2 R158A (domain or fragment)
chain: B17 chain with A20K, R29A

Kd [10]: > 100 µM
B19: Pon A2B2 Y154E (domain or fragment)
chain: B17 chain with A20K, Y25E
